For this test, the target named is importin β (Impβ) (human, UniProt Q14974 1-876). Put plainly: pull-down.
importin β (Impβ), sequence (Q14974 whole entry): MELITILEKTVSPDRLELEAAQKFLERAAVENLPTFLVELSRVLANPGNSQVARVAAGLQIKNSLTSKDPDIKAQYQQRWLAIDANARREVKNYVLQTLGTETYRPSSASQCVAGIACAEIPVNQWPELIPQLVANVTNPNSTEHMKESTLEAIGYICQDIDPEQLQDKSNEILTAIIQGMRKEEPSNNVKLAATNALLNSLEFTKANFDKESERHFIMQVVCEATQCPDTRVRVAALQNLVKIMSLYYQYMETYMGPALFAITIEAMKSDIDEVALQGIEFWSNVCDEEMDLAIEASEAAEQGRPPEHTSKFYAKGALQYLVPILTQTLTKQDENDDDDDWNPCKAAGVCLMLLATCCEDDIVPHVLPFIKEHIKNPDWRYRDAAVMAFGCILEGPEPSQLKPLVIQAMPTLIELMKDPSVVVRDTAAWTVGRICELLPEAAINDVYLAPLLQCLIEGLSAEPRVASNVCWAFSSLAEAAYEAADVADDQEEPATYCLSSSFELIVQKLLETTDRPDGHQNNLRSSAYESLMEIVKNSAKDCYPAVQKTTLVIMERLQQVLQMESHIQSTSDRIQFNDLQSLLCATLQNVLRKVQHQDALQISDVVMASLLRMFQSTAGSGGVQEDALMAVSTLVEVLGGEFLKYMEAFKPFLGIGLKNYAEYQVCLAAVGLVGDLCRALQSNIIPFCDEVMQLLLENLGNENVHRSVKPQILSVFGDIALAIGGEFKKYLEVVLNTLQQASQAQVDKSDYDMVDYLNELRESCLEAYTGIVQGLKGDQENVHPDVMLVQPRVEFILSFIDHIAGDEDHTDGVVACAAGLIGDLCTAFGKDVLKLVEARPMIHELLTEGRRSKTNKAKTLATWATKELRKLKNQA

B1: His-tagged H1.0 C-terminal domain (H1C, aas 96–194) (domain or fragment, human, UniProt P07305 96-194, looked up)
chain: AKSDEPKKSVAFKKTKKEIKKVATPKKASKPKKAASKAPTKKPKATPVKKAKKKLAATPKKAKKPKTVKAKPVKASKPKKAKPVKPKAKSSAKRAGKKK
Turning to B1, the binding result is on record as “binds”.

B2: Nsp1_FG (497–608), construct containing five FG repeats from nucleoporin Nsp1 (domain or fragment)
chain: not shown
On to B2, for which the binding result is “binds”.

These data come from publication PMC6436938 (Molecular Cell, 2019).
